Where two headings read alike, the source gives them in different places. Where a SMILES comes first, the peptide text is derived from it. Bridges are numbered along the chain shown (N, C = ends). [ ]: non-standard residue; d: D form. The star is where a group is joined. d2Nal = N[C@H](Cc1ccc2ccccc2c1)C(=O)O; Nle = CCCC[C@H](N)C(=O)O; Ahp = NCCCCCCC(=O)O; Bn = c1ccc(C*)cc1
What was measured:
receptor MRGX2 [1] = molecular target: T1, receptor MRGX2 (Homo sapiens, UniProt Q96LB1); assay: Functional assay measuring intracellular calcium mobilisation (FLIPR); type: cell-based; parameters: expressed in transfected cells; host or cells: e.g. HEK293 or CHO-K1 engineered to stably express Galpha15 / Gqi-5; conditions: for response of the MRGX2 receptor: at a concentration of 1µM
T1 sequence (Q96LB1 1-330): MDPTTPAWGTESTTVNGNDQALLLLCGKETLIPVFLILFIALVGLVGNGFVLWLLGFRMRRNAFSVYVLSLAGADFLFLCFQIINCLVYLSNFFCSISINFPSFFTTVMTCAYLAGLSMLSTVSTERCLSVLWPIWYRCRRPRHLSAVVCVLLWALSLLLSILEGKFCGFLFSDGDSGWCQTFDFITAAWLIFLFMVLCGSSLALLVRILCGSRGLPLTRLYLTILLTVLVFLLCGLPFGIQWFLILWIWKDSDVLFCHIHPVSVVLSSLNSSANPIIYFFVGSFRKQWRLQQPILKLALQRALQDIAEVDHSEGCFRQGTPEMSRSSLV

receptor MRGX2 [2] = molecular target: T1, receptor MRGX2; assay: as above; type: cell-based; parameters: expressed in transfected cells; host or cells: host cell line, e.g. HEK293 or CHO-K1, engineered to stably express Gα15 / Gqi-5; conditions: Preliminary EC50 data for receptor MRGX2; transiently transfected host cells expressing Gα15 / Gqi-5, Fluo3 fluorescence
Description: 5 x 10^6 cells of a suitable host cell line, chosen to express a low number of endogenous receptors (e.g. HEK293 or CHO-K1) and engineered to stably express Gα15 / Gqi-5, were transiently transfected with 7.5 µg of cDNA encoding receptor MRGX2 in a suitable mammalian cell expression vector, or vector alone, using Lipofectamine Plus® reagent (Gibco BRL) as per the manufacturer's protocol. If the cells were intended for a ligand binding assay or microphysiometry, they were incubated for 24-72 hours post transfection, and then harvested. […]
Fluorescence Imaging Plate Reader (FLIPR®) technology was employed as a means to detect activation of receptor MRGX2 by various potential GPCR agonists.
Cells were transfected as described in Example 3. […] The FLIPR® processing involved reading the fluorescence for all samples for 2 minutes; during this time the fluorescence baseline was determined for 10 seconds. The desired amount of compounds (i.e. potential GPCR agonists) was then automatically transferred to the wells and the fluorescence was continuously monitored for the remainder of the time. […]
Compounds capable of acting as agonists for the receptor were identified by them causing a transient rise in fluorescence, and therefore in intracellular calcium, in the cells.

MC4 receptor = MC4 receptor (Homo sapiens, UniProt P32245); conditions: cited from earlier work
Chain of MC4 receptor (P32245 whole entry): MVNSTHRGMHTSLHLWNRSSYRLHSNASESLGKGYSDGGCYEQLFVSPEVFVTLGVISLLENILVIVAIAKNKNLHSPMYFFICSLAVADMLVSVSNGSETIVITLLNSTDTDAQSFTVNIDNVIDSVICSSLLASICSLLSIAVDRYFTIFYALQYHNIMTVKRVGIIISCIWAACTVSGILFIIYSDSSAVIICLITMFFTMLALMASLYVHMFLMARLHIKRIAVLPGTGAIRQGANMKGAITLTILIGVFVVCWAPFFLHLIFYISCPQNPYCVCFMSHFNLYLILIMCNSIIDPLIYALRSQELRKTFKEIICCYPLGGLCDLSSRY

[3] = i.c.v. administration, free feeding rats, maximal response at 1nmol dose; cited from earlier work
receptor MRGX2 (human) = receptor MRGX2 (human) (UniProt Q96LB1); assay: cell-based or functional assay
SNSR3 = SNSR3 (MRGX1); cited from earlier work
five known SST receptors = conditions: range over the five known SST receptors; cited from earlier work
[4] = Preliminary EC50 data for receptor MRGX2, transiently transfected host cells expressing Gα15 / Gqi-5, Fluo3 fluorescence, read-out: EC50

Row | Molecule | EC50 (µM), intracellular calcium mobilisation (FLIPR) (receptor MRGX2 (human)) [µM] | other results
1 | CC[C@H](C)[C@@H]1NC(=O)[C@H](Cc2ccc(O)cc2)NC(=O)[C@@H](N)CSSC[C@@H](C(=O)N2CCC[C@H]2C(=O)N[C@H](C(=O)NCC(N)=O)[C@@H](C)CC)NC(=O)[C@H](CC(N)=O)NC(=O)[C@H](CO)NC1=O [(Ser^4, Ile^8)-Oxytocin] (H-CYISNCPIG-NH2; disulfide 1-6) |  | EC50 (receptor MRGX2 [1]; [4]): 7400 nM
2 | Nc1ncnc2nc[nH]c12 [Adenine] |  | EC50 (receptor MRGX2 [2]): No response
3 | CSCC[C@H](NC(=O)[C@@H]1CCCN1C(=O)CNC(=O)[C@H](CCCCN)NC(=O)[C@H](Cc1cnc[nH]1)NC(=O)[C@H](CO)NC(=O)[C@H](CC(C)C)NC(=O)[C@H](CCCNC(=N)N)NC(=O)[C@@H]1CCCN1C(=O)[C@H](CCCNC(=N)N)NC(=O)[C@@H](N)CCC(N)=O)C(=O)N1CCC[C@H]1C(=O)N[C@@H](Cc1ccccc1)C(=O)O [Apelin 13] |  | EC50 (receptor MRGX2 [1]): > 10000 nM
4 | C[C@@H](OCc1ccccc1)[C@@H]1NC(=O)[C@H](CCCCN)NC(=O)[C@@H](Cc2c[nH]c3ccccc23)NC(=O)[C@H](Cc2ccccc2)NC(=O)CCCCCCNC1=O [Cyclosomatostatin] (cyclo([Ahp]F[dW]KT(Bn)); ring closure inferred) |  | EC50 (receptor MRGX2 [1]; [4]): 1470 nM
5 | C[C@H](N)C(=O)NCC(=O)N[C@H]1CSSC[C@@H](C(=O)O)NC(=O)[C@H](CO)NC(=O)[C@H]([C@@H](C)O)NC(=O)[C@H](Cc2ccccc2)NC(=O)[C@H]([C@@H](C)O)NC(=O)[C@H](CCCCN)NC(=O)[C@@H](Cc2c[nH]c3ccccc23)NC(=O)[C@H](Cc2ccccc2)NC(=O)[C@H](Cc2ccccc2)NC(=O)[C@H](CC(N)=O)NC(=O)[C@H](CCCCN)NC1=O [D-Trp-Somatostatin] |  | EC50 (receptor MRGX2 [1]; [4]): 179 nM
6 | CCCC[C@@H]1NC(=O)[C@@H](NC(C)=O)CSSC[C@@H](C(N)=O)NC(=O)CNC(=O)[C@H](Cc2c[nH]c3ccccc23)NC(=O)[C@H](CCCNC(=N)N)NC(=O)[C@@H](Cc2ccc3ccccc3c2)NC(=O)[C@H](Cc2c[nH]cn2)NC(=O)[C@H](CCCNC(=N)N)NC1=O [HS024, (Acetyl-Cys^3,Nle^4,Arg^5,D-2-Nal^7,Cys^11)-a-MSH (3-11) amide] (Ac-C[Nle]RH[d2Nal]RWGC-NH2; disulfide 1-9 (inferred)) |  | Ki (MC4 receptor): 0.29 nM; food intake [3]: dose dependant increase in food intake
7 | CC(C)C[C@H](NC(=O)[C@H](CC(N)=O)NC(=O)[C@@H]1CCCN1C(=O)[C@@H](N)C(C)C)C(=O)N1CCC[C@H]1C(=O)N[C@@H](CCC(N)=O)C(=O)N[C@@H](CCCNC(=N)N)C(=O)N[C@@H](Cc1ccccc1)C(N)=O [NPVF] |  | EC50 (receptor MRGX2 [1]; [4]): > 10000 nM
8 | CC[C@H](C)[C@@H]1NC(=O)[C@H](Cc2ccc(O)cc2)NC(=O)[C@@H](N)CSSC[C@@H](C(=O)N2CCC[C@H]2C(=O)N[C@@H](CC(C)C)C(=O)NCC(N)=O)NC(=O)[C@H](CC(N)=O)NC(=O)[C@H](CCC(N)=O)NC1=O [Oxytocin] |  | EC50 (receptor MRGX2 [1]; [4]): 1470 nM
9 | CC(C)[C@@H]1NC(=O)[C@H](CCCCN)NC(=O)[C@@H](Cc2c[nH]c3ccccc23)NC(=O)[C@H](Cc2ccc(O)cc2)NC(=O)[C@@H](NC(=O)[C@H](N)Cc2ccc3ccccc3c2)CSSC[C@@H](C(=O)N[C@H](C(N)=O)[C@@H](C)O)NC1=O [Peptide N9642, β-(2-Naphthyl)-D-Ala-Cys-Tyr-D-Trp-Lys-Val-Cys-Thr amide [Disulfide Bridge: 2-7]] |  | EC50 (receptor MRGX2 [1]; [4]): 251 nM
10 | Apelin 13 (from UniProt Q9ULZ1 65-77) (peptide) | > 10 | 
11 | BAM 13-22 (from UniProt P01211 37-46) (peptide) | 0.1 | 
12 | Bovine adrenal medulla peptide 22 [BAM 22] |  | EC50 (SNSR3): 13 nM
13 | Cortistatin (PCKNFFWKTFSSCK) [CST, cyclic peptide derived from a prepropeptide of 114 residues in man] |  | EC50 (five known SST receptors): 0.25 to 0.9 nM
14 | Cyclosomatostatin (peptide) | 1.47 | 
15 | Dynorphin A (from UniProt P01213 207-219) (peptide) | 1.85 | 
16 | HS024 (Acetyl-Cys^3,Nle^4,Arg^5,D-2-Nal^7,Cys^11)-α-MSH (3-11) amide (from UniProt P01189 140-148) (peptide) | 0.42 | 
17 | N9642 (β-(2-Naphthyl)-D-Ala-Cys-Tyr-D-Trp-Lys-Val-Cys-Thr amide [Disulfide Bridge: 2-7] (sst2R agonist)) (peptide) | 0.251 | 
18 | Octreotide (peptide) | > 10 | 
19 | Oxytocin (from UniProt P01178 20-28) (peptide) | 1.47 | 
20 | Somatostatin 14 (from UniProt P61278 89-116) (peptide) | 0.78 | 
21 | α-MSH |  | response of the MRGX2 receptor (receptor MRGX2 [1]): responds
22 | γ-MSH |  | response of the MRGX2 receptor (receptor MRGX2 [1]): responds

Continued, in another order:

Row | EC50 (µM), intracellular calcium mobilisation (FLIPR) (receptor MRGX2 (human)) [µM] | Molecule | other results
23 | > 10 | (Deamino-Cysl,D-Orn^8) Vasopressin (from UniProt P01185 20-28) (peptide) | 
24 | 7.4 | (Ser^4, Ile^8)-Oxytocin (from UniProt P01178 20-28) (peptide) | 
25 | 0.179 | D-Trp-Somatostatin (from UniProt P61278 103-116) (peptide) | 
26 | > 10 | HS014 (peptide) | 
27 | 9.5 | Hexarelin (peptide) | 
28 | > 10 | NPAF (from UniProt O15130 93-110) (peptide) | 
29 | > 10 | NPSF (peptide) | 
30 | > 10 | NPVF (from UniProt Q9HCQ7 124-131) (peptide) | 
31 | > 10 | Nociceptin (from UniProt Q13519 130-146) (peptide) | 
